Data on eleven variants can be found in paper PMC8558838 (The Journal of Experimental Medicine, 2021).

B1: full-length mouse BTLA-EGFP, on cells [mouse] / full-length WT mouse HVEM-mCherry, on cells [mouse] (parent complex)
chain 1: EKATKRNDEECPVQLTITRNSKQSARTGELFKIQCPVKYCVHRPNVTWCKHNGTICVPLEVSPQLYTSWEENQSVPVFVLHFKPIHLSDNGSYSCSTNFNSQVINSHSVTIHVRERTQNSSEHPLITVSDIPDATNASGPSTMEERPGRTWLLYTLLPLGALLLLLACVCLLCFLKRIQGKEKKPSDLAGRDTNLVDIPASSRTNHQALPSGTGIYDNDPWSSMQDESELTISLQSERNNQGIVYASLNHCVIGRNPRQENNMQEAPTEYASICVRS
chain 2: QPSCRQEEFLVGDECCPMCNPGYHVKQVCSEHTGTVCAPCPPQTYTAHANGLSKCLPCGVCDPDMGLLTWQECSSWKDTVCRCIPGYFCENQDGSHCSTCLQHTTCPPGQRVEKRGTHDQDTVCADCLTGTFSLGGTQEECLPWTNCSAFQQEVRRGTNSTDTTCSSQVVYYVVSILLPLVIVGAGIAGFLICTRRHLHTSSVAKELEPFQEQQENTIRFPVTEVGFAETEEETASN

The experiment covers variants of B1. As to the kind of experiment: flow cytometry, cell–cell method. In general terms: A flow cytometer gives signals particle by particle.
chain 2 QPSCRQERFLVGDECCPMCNPGYHVKQVCSEHTGTVCAPCPPQTYTAHANGLSKCLPCGVCDPDMGLLTWQECSSWKDTVCRCIPGYFCENQDGSHCSTCLQHTTCPPGQRVEKRGTHDQDTVCADCLTGTFSLGGTQEECLPWTNCSAFQQEVRRGTNSTDTTCSSQVVYYVVSILLPLVIVGAGIAGFLICTRRHLHTSSVAKELEPFQEQQENTIRFPVTEVGFAETEEETASN [chain 2 E8R]: the ratio to parent turned out to be 0.7.
Turning to chain 2 QPSCAQEEFLVGDECCPMCNPGYHVKQVCSEHTGTVCAPCPPQTYTAHANGLSKCLPCGVCDPDMGLLTWQECSSWKDTVCRCIPGYFCENQDGSHCSTCLQHTTCPPGQRVEKRGTHDQDTVCADCLTGTFSLGGTQEECLPWTNCSAFQQEVRRGTNSTDTTCSSQVVYYVVSILLPLVIVGAGIAGFLICTRRHLHTSSVAKELEPFQEQQENTIRFPVTEVGFAETEEETASN [chain 2 R5A], the ratio to parent was determined as 0.7.
On to chain 2 QPSCDQEEFLVGDECCPMCNPGYHVKQVCSEHTGTVCAPCPPQTYTAHANGLSKCLPCGVCDPDMGLLTWQECSSWKDTVCRCIPGYFCENQDGSHCSTCLQHTTCPPGQRVEKRGTHDQDTVCADCLTGTFSLGGTQEECLPWTNCSAFQQEVRRGTNSTDTTCSSQVVYYVVSILLPLVIVGAGIAGFLICTRRHLHTSSVAKELEPFQEQQENTIRFPVTEVGFAETEEETASN [chain 2 R5D], for which the ratio to parent turned out to be 1.2.
For chain 2 QPSCRQEEFLVGDECCPMCNPGYHVKQVCSEHTRTVCAPCPPQTYTAHANGLSKCLPCGVCDPDMGLLTWQECSSWKDTVCRCIPGYFCENQDGSHCSTCLQHTTCPPGQRVEKRGTHDQDTVCADCLTGTFSLGGTQEECLPWTNCSAFQQEVRRGTNSTDTTCSSQVVYYVVSILLPLVIVGAGIAGFLICTRRHLHTSSVAKELEPFQEQQENTIRFPVTEVGFAETEEETASN [chain 2 G34R], the ratio to parent turned out to be 0.1.
In the case of chain 2 QPSCRQEEFLVGDECCPMCNPGYHVKQVCSEHTGAVCAPCPPQTYTAHANGLSKCLPCGVCDPDMGLLTWQECSSWKDTVCRCIPGYFCENQDGSHCSTCLQHTTCPPGQRVEKRGTHDQDTVCADCLTGTFSLGGTQEECLPWTNCSAFQQEVRRGTNSTDTTCSSQVVYYVVSILLPLVIVGAGIAGFLICTRRHLHTSSVAKELEPFQEQQENTIRFPVTEVGFAETEEETASN [chain 2 T35A] it was 0.5.
chain 2 QPSCRQEEFLVGDECCPMCNPGYHVKQVCSEHTGTVCAPCPPQTYTAHANDLSKCLPCGVCDPDMGLLTWQECSSWKDTVCRCIPGYFCENQDGSHCSTCLQHTTCPPGQRVEKRGTHDQDTVCADCLTGTFSLGGTQEECLPWTNCSAFQQEVRRGTNSTDTTCSSQVVYYVVSILLPLVIVGAGIAGFLICTRRHLHTSSVAKELEPFQEQQENTIRFPVTEVGFAETEEETASN [chain 2 G51D]: the ratio to parent came out at 1.
Regarding chain 2 QPSCRQEEFLVGDECCPMCNPGYHVKQVCSEHTGTVCAPCPPQTYTAHADGLSKCLPCGVCDPDMGLLTWQECSSWKDTVCRCIPGYFCENQDGSHCSTCLQHTTCPPGQRVEKRGTHDQDTVCADCLTGTFSLGGTQEECLPWTNCSAFQQEVRRGTNSTDTTCSSQVVYYVVSILLPLVIVGAGIAGFLICTRRHLHTSSVAKELEPFQEQQENTIRFPVTEVGFAETEEETASN [chain 2 N50D], the ratio to parent came to 0.9.
For the variant chain 2 QPSCRQEEFLVGDECCPMCNPGYHVKQVCHEHTGTVCAPCPPQTYTAHANGLSKCLPCGVCDPDMGLLTWQECSSWKDTVCRCIPGYFCENQDGSHCSTCLQHTTCPPGQRVEKRGTHDQDTVCADCLTGTFSLGGTQEECLPWTNCSAFQQEVRRGTNSTDTTCSSQVVYYVVSILLPLVIVGAGIAGFLICTRRHLHTSSVAKELEPFQEQQENTIRFPVTEVGFAETEEETASN [chain 2 S30H], the ratio to parent is 0.9.
Take chain 2 QPSCRQEEFLVGDECCPMCNPGYHVKQVCSEHTGTDCAPCPPQTYTAHANGLSKCLPCGVCDPDMGLLTWQECSSWKDTVCRCIPGYFCENQDGSHCSTCLQHTTCPPGQRVEKRGTHDQDTVCADCLTGTFSLGGTQEECLPWTNCSAFQQEVRRGTNSTDTTCSSQVVYYVVSILLPLVIVGAGIAGFLICTRRHLHTSSVAKELEPFQEQQENTIRFPVTEVGFAETEEETASN [chain 2 V36D]: the ratio to parent was 0.8.
In the case of chain 2 QPSCRQEEFLVGDECCPDCNPGYHVKQVCSEHTGTVCAPCPPQTYTAHANGLSKCLPCGVCDPDMGLLTWQECSSWKDTVCRCIPGYFCENQDGSHCSTCLQHTTCPPGQRVEKRGTHDQDTVCADCLTGTFSLGGTQEECLPWTNCSAFQQEVRRGTNSTDTTCSSQVVYYVVSILLPLVIVGAGIAGFLICTRRHLHTSSVAKELEPFQEQQENTIRFPVTEVGFAETEEETASN [chain 2 M18D], the ratio to parent was 1.
Consider chain 2 QPSCRQEEFLVGDECCPMCNPGYHVKQVCSEHTGTVCAPCPPQTYTADANGLSKCLPCGVCDPDMGLLTWQECSSWKDTVCRCIPGYFCENQDGSHCSTCLQHTTCPPGQRVEKRGTHDQDTVCADCLTGTFSLGGTQEECLPWTNCSAFQQEVRRGTNSTDTTCSSQVVYYVVSILLPLVIVGAGIAGFLICTRRHLHTSSVAKELEPFQEQQENTIRFPVTEVGFAETEEETASN [chain 2 H48D], for which the ratio to parent was 1.1.
